Experimental data: the nanobody polyreactivity screen of Harvey et al. (2022)

Assay: yeast display, Sf9 membrane polyspecificity reagent, FACS + sequencing; frameworks hold sequencing errors
Method in brief: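 Sorting gates, low and high (top ~1%), were placed on anti-HA fluorescence to track expression and on streptavidin fluorescence to track reagent binding. A clone's polyreactivity label is taken from the gate it came out of. The reagent was 10% biotinylated, detergent-solubilized Sf9 membrane, applied for 1 hour at 4 °C to galactose-induced yeast display cells.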

| Sequence | polyreactivity (PSR sort gate) |
| --- | --- |
| QVQLEESGGGLVQAGGSLRLSCAASGRNFLYNAMGWYRQAPGKERELVAAITASGGTTYYADSVKGRFTISRDNAKNNVYLQMNSLKPEDTAVYYCNAYSYSGERYYWGQGTQVTVSS | high polyreactivity |
| QVQLEESGGGLVQAGGSLRLSCAASGRTFDRYAMGWYRQAPGKERELVAAITWSGGRTYYADSVKGRFTISRDNPKNTVYLQMNSLKPEDTAVYYCATAYYYHGGYYYPYDVDYWGQGTQVTVSS | low polyreactivity |
| QVQLEESGGGLVQAGGSLRLSCAASGRTFGRNAMGWYRQAPGERELVAVISRGGSTYYADSVKGRFTISRDNAKNSVYLQMNSLIPEDTAVYYCNADTVYTRTAPYDYWGQGTQVTVSS | low polyreactivity |
| QVQLEESGGGLVQAGGSLRLSCAASGRTFITYAMGWYRQAPGKVRELVASITSNGGRTYYADSVKGRFKISRDNAKNTVYLQMNSLKPEYTAVYYCSAGTRSRAPYYRTSVDTYGYWGQGTQVTVSS | low polyreactivity |
| QVQLEESGGGLVQAGGSLRLSCAASGRTFNKNAMGWYRQAPGKERELVAAISYSGGRTYYADSVKGRFTISRDNAKNTVYLQMNSLKPEDTAVYYCAAWGSSYSFDYWGQGTQVTVSS | high polyreactivity |
| QVQLEESGGGLVQAGGSLRLSCAASGRTFSGYAMGSYRQAPGKDRELVAAITRRGGTTYYADSVKGRFTISRDNAKNTVYLQMNSLKPEDTAVYYCAAAKPRVISQKIIYYYWGQGTQVTVSS | high polyreactivity |
| QVQLEESGGGLVQAGGSLRLSCAASGRTFVWYAMGWYRQAPGKERELVAAISRSGGSTYYADSVKGRFTISRDNAKNTVYLQMNSLKPEDTAVYYCAAEFYIAPPYDYWGQGTQVTVSS | high polyreactivity |
| QVQLEESGGGLVQAGGSLRLSCAASGRTFWDNARGWNRQAPGKERELVATITSGDSTNYAASVKGRFTISRDNAKNTVYLQMNSLKPEDTAVYYCARVIVFDAYEFDYWGQGTQVTVSS | low polyreactivity |
| QVQLEESGGGLVQAGGSLRLSCAASGRTFYRYAMGWYRQAPGKERELVATISSRGTSTYYADSVKGRFTISRDNAKNTVYLQMNSLKPEDTAVYYCAVRGYAAGRHGYDYWGQGTQVTVSS | high polyreactivity |
| QVQLEESGGGLVQAGGSLRLSCAASGRTINGNTMGWYRQAPGKERELVAVIDWSGGSTYYADSVKGRFTISRDNAKNTVYLQMNSLKPEDTAVYYWNAETRDPILYGEYDYWGQGTQVTVSS | low polyreactivity |
| QVQLEESGGGLVQAGGSLRLSCAASGRTLGYNAMGWYRQAPGKERELVAAISYGGGGTYYADSVKGRFTISRDNAKNTVYLQMNSLKPEDSAVYYCAKPRAFVGYNHWGQGTQVSVSS | low polyreactivity |
| QVQLEESGGGLVQAGGSLRLSCAASGSIFAVYAKGWYRQAPGKEREFVARISWGGGRTYYADSVKGRFTISRDNAKNTVYLQMNSLKPEDTAVYYCAATFRARPRENYWGQGTQVTVSS | high polyreactivity |
| QVQLEESGGGLVQAGGSLRLSCAASGSIFDPNAMGWYRKAPGKERELVADIDSSDGSTYYADSVKGRFTISRDNAKNTVYLQMNSLKPEDTAVYYCNARYGGWVWSTYDHWGQGTQVTVSS | low polyreactivity |
| QVQLEESGGGLVQAGGSLRLSCAASGSIFEWNDMGWSRQAPGKEREFVAAITSTDDGTYYADSVKGRFTISRDNAKNTVYLQMNSLKPEDTAVYYCAKRAWGSPYGYWGQGTQVTVSS | low polyreactivity |
| QVQLEESGGGLVQAGGSLRLSCAASGSIFIANAMGWYRQAPGKERELVAVINWGDGSTYADSVKGRFTISRDNAKNTVYLQMNSLKPEDTAVYYCNAPDEVNDVRYDYWGQGTQVTVSS | low polyreactivity |
| QVQLEESGGGLVQAGGSLRLSCAASGSIFQINAMGWYRQAPGKERELVAAITRGGGTTYYADSVKGRFTISRDNAKNTVYLQMNSLKPEDTAVYYCAADFERRRYDYWGQGTQVTVSS | low polyreactivity |
| QVQLEESGGGLVQAGGSLRLSCAASGSIFRYNAMGWYRQAPGKERELVAAITSGDSTYYADSVKGRFTISRDNAKNTVYLQMNSLKPEDTAVYYCAADLRYIYWSYYYWGQGTQVTVSS | low polyreactivity |
| QVQLEESGGGLVQAGGSLRLSCAASGSIFSYYVMGWYRQAPGKERELVARNSKRGVTTYYADSVKGRFTISRDNAKNTVYLQMNSLKPEDTAVYFCAASVWRDRIYRYEYWGQGTQVTVSS | high polyreactivity |
| QVQLEESGGGLVQAGGSLRLSCAASGSIFVYYRMGWYRQAPGKERELVAAISSGGSTHYADSVKGRFTISRDNAKNTVYLQMNSLKPEDTAFYYRNDRAYGNGMGTGYFGKHRYDYWGQGTQVTVSS | low polyreactivity |
| QVQLEESGGGLVQAGGSLRLSCAASGSIFYYYVMGWCRQAPGKERELVAAISSGGGTNYADSVKGRFTISRDNAKNTVYLQMNSLKPEDTAVYYCAKASAYGLANDYDYWGQGTQVTVSS | low polyreactivity |
| QVQLEESGGGLVQAGGSLRLSCAASGSILFFNAKGWYRQAPGKERELVADISTGGSTYYADSVKGRFTISRDNAKNTVYLQMNSLKPEDTAVYYCNADYYYFFYTLDYWGQGTQVTVSS | high polyreactivity |
| QVQLEESGGGLVQAGGSLRLSCAASGSILIYNAMGLYRQATGKERELVAGISRRGASTYYADSVKGRFTISRDYAKNTVYLQMNSLKPEDTAVYYCATRKLRTRGYDYGYWGQGTQVTVSS | low polyreactivity |

| Sequence | polyreactivity (PSR sort gate) |
| --- | --- |
| QVQLEESGGGLVQAGGSLRLSCAASGSILLGYDMGWYRTAPGKERELVASIDTNGGSPYYADSVKGRFTISRDNAKNTVYLQSNSLKPEDTAVYYCNADPSFVGGTYDYWGQGTQVTVSS | low polyreactivity |
| QVQLEESGGGLVQAGGSLRLSCAASGSTFFLYAMGWYRQAPGKERELVAAITYTDGDTYYADSVKGRFTISRDNAKNTVYLQMNSLKPEDTAVYYCNAGGDEPVYGSGYDYWGQGTQVTVSS | low polyreactivity |
| QVQLEESGGGLVQAGGSLRLSCAASGSTFGRNTLGSYRPAPGKERELVAVISRRGGITTYADSVKGRFTISRENAKNTVYLQMNSLKPVDTAVYYCNAVSRVYNKGQYGYWGQGTQVSVSS | high polyreactivity |
| QVQLEESGGGLVQAGGSLRLSCAASGSTFLLYAMGRYRQAPGKEMEMVATISWGGDGTYYADSVKGRFTISRDNAKNTVYLQMNSLIPEDTAVYYCAAESYLVQFYFLYYYWGQGTQVTVSS | low polyreactivity |
| QVQLEESGGGLVQAGGSLRLSCAASGSTFQLYAMGWYRPAPGKERELVAGISRDGSTYYADSVKGRFTISRDNAKNTVFLQMNSLKPEDTAVYYCAAKYYGNKRDLYYWGQGTQVTVSS | low polyreactivity |
| QVQLEESGGGLVQAGGSLRLSCAASGSTFSTYSMAWYRHAPGKERELVARITRSDTGTYYADSVKGRFTISRDYAKNTVYLQLNSLKPEDTAVYDCAADGWYDDSGWDYGYDYWGQGTQVTVSS | low polyreactivity |
| QVQLEESGGGLVQAGGSLRLSCAASGSTFTEYVMGWYRHATGKERELVAAIRSNGGSTYYADSVKGRFTISRDNAKNTVYLQMHSLNPEDTAVYYCNRVYSRRTYNSPLYDDWGQGTQVTVSS | high polyreactivity |
| QVQLEESGGGLVQAGGSLRLSCAASGSTFTGYAMGWYRQAPGKERELVAAIPISGGRTFYADSVKGRFTISRDNAKNTVYLQMNSLKPEDTAFYYCAAYLRGSKYSFDYWGQGTQVTVSS | high polyreactivity |
| QVQLEESGGGLVQAGGSLRLSCAASGSTFVPNDMGGYRQAPGKERELVAAITDSGGSTYYADSVKGRFTISRDNAKNTVYLQMNSLKPEDTAVYYCAAEKAEWYYHTVWHFARGEYWGQGTQVTVSS | low polyreactivity |
| QVQLEESGGGLVQAGGSLRLSCAASGSTFWLNAMGWYRQAPGKESELVASITWSGDSTYYADSVKGRFTISRDNAKNTVYLQMNSLKPEDTAVYYCNTDSILGQIWGATDDYWGQGTQVTVSS | low polyreactivity |
| QVQLEESGGGLVQAGGSLRLSCAASGSTFWRYAMGWYRQAPGKERELVAAISWNGGSTYYADSVKGRFTISRDNAKNTDYLQMNSLKPEDTSVFYCNRRYPFYSRYNNDYWGQGTQVTVSS | high polyreactivity |
| QVQLEESGGGLVQAGGSLRLSCAASGSTFYANTMGSYRQAPGKERELVATISIDGSTNYADSVKGRFTISRDNAKNTVYLQMNTLKPEDTAVYYCNADVYSVLYGYWGQGTQVTVSS | low polyreactivity |
| QVQLEESGGGLVQAGGSLRLSCAASGSTFYGYAMGWNRQAPGKERELVAAITRSGGSTYYADSVKGRFTISRDNAKNTVYLQMNSLKPEDTEVYYCNKYGYKGGVGYDYWGQGTQVTVSS | high polyreactivity |
| QVQLEESGGGLVQAGGSLRLSCAASGSTFYPNAMGWYRQAPGKERELVAAISQRGGRKYYADSVKGRFTISRDNAKNTVYLQMNSLKPEDTAVYYCAATYQGYNSWYSFGYWGQGTQVTVSS | high polyreactivity |
| QVQLEESGGGLVQAGGSLRLSCAASGSTFYRYAMGCYRQAPGKERELVAAMSRGGGRTNYADSVKGRFTISRDNAKNTVYLQMNSLKPEDTAVYYGAAYTYSFRANHDYWGQGTQVTVSS | high polyreactivity |
| QVQLEESGGGLVQAGGSLRLSCAASGSTFYRYTMGWYRQAPGTERELVAAISRSGGRTYYADSVKGRFTISRDNAKNTVYLQMNSLKPEDTAVYYCAAARRYGRYFGYPMEYWGQGTQVTVSS | high polyreactivity |
| QVQLEESGGGLVQAGGSLRLSCAASGSTFYSNAIGWYRQAPGKEREFVAAISLRGGSTYYADSVKGRFTISRDNAKNTVYLQMNSLKPEDTAVYYCAVDYYRRNGLKVYYRYDYWGQGTQVTVSS | high polyreactivity |
| QVQLEESGGGLVQAGGSLRLSCAASGSTIPRNAMGWYRQAPGKERELVAAITSGGSTNYADSVKGRFTISRDNAKNTVYLQMNSLKPEDTSVYYCAADEQVNTQYVVWGDYWGQGTQVTVSS | low polyreactivity |
| QVQLEESGGGLVQAGGSLRLSCAASGSTLIDNVMVWYRQAPGKERELVASITSSDGTTYADSVKGRITISRDNAKNTVYLQMNSLIPEDTAVYYCAARPWYGTYNYWGQGTQVTVSS | low polyreactivity |
| QVQLEESGGGLVQAGGSLRLSCAASGSTLKLNAMGWYRQAPGKERELVASINFSGGSTYYAYSVKGRFTISRDNAKNTVYLQMNSLKPEDTAVYYCAAEASSYSRSVRWRYVYYYWGQGTQVTVSS | high polyreactivity |
| QVQLEESGGGLVQAGGSLRLSCAASGTFVTYMGWYRQAPGKERELVAAIRNGGSTNYADSVKGRFTISRDNAKNTVYLQMNSLKPEDTAVYYCAARVTYSRGYRGGSRTKYDYWGQGTQVTVSS | low polyreactivity |
